The source of these data is the supplement of paper PMC9170038.

The series concerns MS2 coat protein. The experiment in a line: apparent KD of MS2 coat protein; designed switch direction (-1 OFF switch, 1 ON switch): -1; higher = weaker reporter binding. In a few lines: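 Three titration conditions were used: no input, 200 uM small-molecule ligand, and an oligonucleotide input. In each, SNAP-549-labelled MS2 coat protein was raised from 0.7 or 1.5 nM, doubling, to 3 µM over designed RNA switches transcribed on Illumina chips by stalled E. coli RNA polymerase. Curve fits of normalised cluster fluorescence gave values whose per-design median over clusters is the apparent KD.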

Where [1] appears, read: input ligand: microRNA oligo, concentration not stated.
The mark [2] stands for this setting: Eterna round: R95, input ligand: microRNA oligo, concentration not stated.
[3] abbreviates: Eterna round: R95, input ligand: FMN 200 uM.
[4] abbreviates: Eterna round: R95, input ligand: none.

For “UAGGGCUGCGGAGGAUAUCCAUAGUGGGCCGGUCGAAGCAUGAGACAUGAGGAUCACCCAUGUCUGGAGAAGGCUGAGCCCUCA [Lequcele] (Eterna round: R96, puzzle: Exclusion NG 2)”, the “apparent KD of MS2 coat protein” value stood at 0.0208 µM (input ligand: FMN 200 uM), 0.0121 µM under setting [1] and 0.0141 µM (input ligand: none).
Consider “UAGGGUAAGUCAUGUACGAACAUGAGGAUCACCCAUGUAGCUGAAAUAAACCUCGUCCAAAUCUUUCCGUAAAAUGU [Zavein] (Eterna round: R96, puzzle: Sensor v2, turn-off variant)”, for which the “apparent KD of MS2 coat protein” value (input ligand: FMN 200 uM) came out at 0.271 µM, the “apparent KD of MS2 coat protein” value under setting [1] amounted to 0.211 µM and the “apparent KD of MS2 coat protein” value (input ligand: none) came to 0.295 µM.
As to “UAGGUGUGAGGAUAUGGUAAAGAUAAAAUGAUGAAAGAACUCCAGAAGGCACAUGAGGAUCACCCAUGUAGAUG [Mat - Exclusion 4 - Mod of JL - D33] (puzzle: Exclusion 4)”, the “apparent KD of MS2 coat protein” value under setting [2] worked out at 0.0283 µM.
Consider “UAGUAUCUGCAGGAUAUCAGUGGAAAACACGUAUGAGAAGGGCAGACAUGAGGAUCACCCAUGUAAAGGGUCCG [BotMod 10 - Jieux - Exclusion 6] (Eterna round: R97, puzzle: Exclusion 6)”, for which the “apparent KD of MS2 coat protein” value by setting is: (input ligand: FMN 200 uM) 0.541 µM; (input ligand: none) 0.173 µM.
Regarding “UAGUGACAUGAGGAUCACCCAUGUGAGGAUAUAGUAGGAGUAAAGAGGAAAGAGAGAACUAGAAGGCACAGUGA [JR_Exclu1_Sub031] (puzzle: Exclusion 1)”, the “apparent KD of MS2 coat protein” value under setting [3] stood at 0.08 µM, the “apparent KD of MS2 coat protein” value under setting [2] stood at 0.0484 µM and the “apparent KD of MS2 coat protein” value under setting [4] came out at 0.0514 µM.
Regarding “UAGUUGCUCAGGGAGUGUGACAUGAGGAUCACCCAUGUGGUGGUAGGGAACAAGCUUUUUGCACGUACUUAUGAGUU [JR_SV3TOV1_Sub008] (puzzle: Sensor v3, turn-off variant 1)”, the “apparent KD of MS2 coat protein” value under setting [3] came out at 0.15 µM, the “apparent KD of MS2 coat protein” value under setting [2] was determined as 0.0425 µM and the “apparent KD of MS2 coat protein” value under setting [4] was 0.184 µM.
Consider “UAUAAAACAUAGGAUAUCGAAUUAAUCAUUUAACGAGAAGGAUGAACAUGAGGAUCACCCAUGUGGUAUCAUGG [Mat - Exclusion 6 - JL Mod - D9] (puzzle: Exclusion 6)”, for which the “apparent KD of MS2 coat protein” value turned out to be 0.333 µM under setting [3], 0.0615 µM under setting [2] and 0.129 µM under setting [4].
Take “UAUAACCGAGGAUAUACAUGAGGAUCACCCAUGUAAUGUAGUAUAAUAUAUGUAAAAUGUAGAAGGUGGGAUGU (Eterna round: R97, puzzle: Exclusion 3)”: the “apparent KD of MS2 coat protein” value is 0.0443 µM (input ligand: FMN 200 uM) and 0.0549 µM (input ligand: none).
The matching figures for “UAUAACCGAGGAUAUACAUGAGGAUCACCCAUGUAAUGUAGUAUAAUGUAUGUAAGAUGUAGAAGGUGGGAUGU (Eterna round: R97, puzzle: Exclusion 3)”: 0.0562 µM and 0.0452 µM.
For the sequence “UAUAAGGUAGGAUAUACGAAUAAAUAGGGUAGAAUAAUAACACAUGAGGAUCACCCAUGUAGAAGGACCAAUAU [Mat - Exclusion 2 - Mod of my Tesla design - D28] (puzzle: Exclusion 2)”, the “apparent KD of MS2 coat protein” value is, setting by setting: under setting [3], 0.0393 µM; under setting [2], 0.0211 µM; under setting [4], 0.0203 µM.
As to “UAUACACAUGAGGAUCACCCAUGUGAGGAUAUGCGUACGUUGUCCGUAGGCGACGUGCGCAGAAGGCGCAAGGU [Mat - Mod of JL D95] (puzzle: Exclusion 1)”, the “apparent KD of MS2 coat protein” value under setting [2] was found to be 0.0614 µM.
For “UAUACUAGAUAGGAUAUACUUUAUUUUUUUUUCGUAGAAGGAUCUACAUGAGGAUCACCCAUGUUAACAGCAGU [JR_E6_Sub008] (puzzle: Exclusion 6)”, the “apparent KD of MS2 coat protein” value under setting [2] was determined as 0.0551 µM.
“UAUAUAUAGUAAGGAUAUGUAUAUAUUUUAUCAACAGAAGGUACUGACAUGAGGAUCACCCAUGUUUUAGUGUGGGCAUGUAGA [JMF's solution 71] (Eterna round: R96, puzzle: Exclusion NG 1)”: the “apparent KD of MS2 coat protein” value under setting [1] was 0.0542 µM.
The same measure, in the same setting: next, “UAUAUAUAGUAAGGAUAUGUAUAUAUUUUGUAAACAGAAGGUACUGACAUGAGGAUCACCCAUGUUUUAGUGUGGGCAUGUAGA [JMF's solution 66] (Eterna round: R96, puzzle: Exclusion NG 1)”: 0.0609 µM.
Turning to “UAUAUGUCAGGAUAUUAGUAGUAAAUAAAUAAAAUUAUUACUGAGAAGGGACAUGAGGAUCACCCAUGUUCCUC [JR_Ex4_Sub001] (Eterna round: R97, puzzle: Exclusion 4)”, the “apparent KD of MS2 coat protein” value (input ligand: FMN 200 uM) came out at 0.162 µM and the “apparent KD of MS2 coat protein” value (input ligand: none) was 0.0229 µM.
The corresponding values for “UAUAUGUUAGGAUAUCUCGUCAUGGAGGAAACUCCAUGACGAGAGAAGGAACAUGAGGAUCACCCAUGUUUAUU [Mod of Fisker 25 - Jieux - Exclusion 4] (Eterna round: R97, puzzle: Exclusion 4)” are 0.0274 µM and 0.019 µM.
Take “UAUAUGUUAGGAUAUUAGUAGUAAAUGAAUAAAAUUAUUACUGAGAAGGGACAUGAGGAUCACCCAUGUACCUC [Mat - Exclusion 4 - Eli Mod - D30] (Eterna round: R97, puzzle: Exclusion 4)”: the “apparent KD of MS2 coat protein” value by setting is: (input ligand: FMN 200 uM) 0.0193 µM; (input ligand: none) 0.0159 µM.
Take “UAUCGGGACUGAGGAUAUUCGUUCGAGCACGAAGAAGAAGGUAGUGUCAGGGACAUGAGGAUCACCCAUGUGAUCUCAGUCCCA [JL ViennaUCT Erinle mod 7] (Eterna round: R96, puzzle: Exclusion NG 1)”: the “apparent KD of MS2 coat protein” value is 0.0718 µM (input ligand: FMN 200 uM), 0.0604 µM under setting [1] and 0.067 µM (input ligand: none).
The corresponding values for “UAUCGGGACUGAGGAUAUUCGUUCGAGCACGAAGAAGAAGGUAGUGUCAGGGACAUGAGGAUCACCCAUGUGAUCUCAGUCUUA [JL ViennaUCT Erinle mod 8] (Eterna round: R96, puzzle: Exclusion NG 1)” are 0.127 µM, 0.0867 µM and 0.0989 µM.
As to “UAUGGUAAAGUCAGGAUAUACGUACAGAAUUCUAGGUAGAAGGGACAUGAGGAUCACCCAUGUAUGGUAGUGUU [Ex4 #43] (Eterna round: R97, puzzle: Brourd's mod of Exclusion 4)”, the “apparent KD of MS2 coat protein” value was 0.262 µM (input ligand: FMN 200 uM) and 0.0669 µM (input ligand: none).
“UAUGGUUAAGUCAGGAUAUACGUACAGAUAUCUGAGUAGAAGGGACAUGAGGAUCACCCAUGUAUGGUAGUGUU [Ex4 #53] (Eterna round: R97, puzzle: Brourd's mod of Exclusion 4)”: the “apparent KD of MS2 coat protein” value by setting is: (input ligand: FMN 200 uM) 0.187 µM; (input ligand: none) 0.0648 µM.
On to “UAUGGUUAAGUCAGGAUAUACGUGCAGUUUUCUGGGUAGAAGGGACAUGAGGAUCACCCAUGUAUGGUAGUGUU [Ex4 #49] (Eterna round: R97, puzzle: Brourd's mod of Exclusion 4)”, for which the “apparent KD of MS2 coat protein” value amounted to 0.188 µM (input ligand: FMN 200 uM) and 0.149 µM (input ligand: none).
With “UAUGGUUAAGUCAGGAUAUGCACGAAGAGGUCUAUGCAGAAGGGACAUGAGGAUCACCCAUGUAAAGUCGUGUU [Ex4 #72] (Eterna round: R97, puzzle: Brourd's mod of Exclusion 4)”, the “apparent KD of MS2 coat protein” value came to 0.0573 µM (input ligand: FMN 200 uM) and 0.0366 µM (input ligand: none).
